In publication PMC2949602, “Genome-wide search identifies Ccnd2 as a direct transcriptional target of Elf5 in mouse mammary gland”:

T1: GST-Elf5 MT2 (R219A) (mouse, UniProt Q8VDK3 1-253, R219A)
T1 sequence: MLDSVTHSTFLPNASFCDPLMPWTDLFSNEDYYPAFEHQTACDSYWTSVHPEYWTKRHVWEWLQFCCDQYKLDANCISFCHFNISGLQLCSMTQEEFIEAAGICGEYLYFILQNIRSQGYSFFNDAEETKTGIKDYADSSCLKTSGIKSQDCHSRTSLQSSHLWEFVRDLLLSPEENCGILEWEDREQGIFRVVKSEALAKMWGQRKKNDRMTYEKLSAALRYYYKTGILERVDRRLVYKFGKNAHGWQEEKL

T2: GST-Elf5 MT1 (K216A) (mouse, UniProt Q8VDK3 1-253, K216A)
T2 sequence: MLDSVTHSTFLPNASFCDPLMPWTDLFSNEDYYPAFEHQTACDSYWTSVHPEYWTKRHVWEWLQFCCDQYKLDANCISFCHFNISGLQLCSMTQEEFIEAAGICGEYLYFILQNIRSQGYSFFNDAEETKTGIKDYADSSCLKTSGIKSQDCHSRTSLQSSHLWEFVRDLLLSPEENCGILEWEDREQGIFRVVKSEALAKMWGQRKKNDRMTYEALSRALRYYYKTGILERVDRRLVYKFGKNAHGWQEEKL

B1: Cyclin D2 upstream region 2 oligo (dsDNA)
DNA 1: GAGCCAGCAGGATGCTTGACATTCCAGCTGCTGG
DNA 2: AGGCCAGCAGCTGGAATGTCAAGCATCCTGCTGG
B2: Cyclin D2 upstream region 1 oligo (dsDNA)
DNA 1: CAGATTAGAAAGGAAAAGGATTACAGTAGT
DNA 2: GTGACTACTGTAATCCTTTTCCTTTCTAAT

Tests used:
[1] = target: T1, GST-Elf5 MT2 (R219A); assay: EMSA; 20 mM HEPES pH 7.9, 75 mM KCl, 2.5 mM MgCl2, 1 mM EDTA, 0.5 mM DTT, 10% glycerol, 1 ug poly(dA-dT), room temperature; 5% nondenaturing PAGE; settings: protein: recombinant; label: 32P (Klenow fill-in with dCTP); 5' overhangs 3 nt each end as annealed, filled in by Klenow
[2] = target: T2, GST-Elf5 MT1 (K216A); assay: as above; settings: protein: recombinant; label: 32P (Klenow fill-in with dCTP); 5' overhangs 3 nt each end as annealed, filled in by Klenow

Binder | binding result [1] | binding result [2]
B1 | no binding | no binding
B2 | no binding | no binding
